The source of these data is patent publication US12104181 (University of Texas, dated 2024).

The target in the assay is T1, TRIM7-3F (TRIM7 with C-terminal 3×FLAG epitope) (human, UniProt Q9C029 1-511).
T1 construct: also called WT TRIM7-3F; 3×Flag-tagged TRIM7
Nature of the assay: co-IP with anti-HA beads from co-transfected 293T cells, Western blot. In general terms: Immunoblotting shows a protein as a band on a membrane.

B1: HA-tagged MenV 2BC (other)
chain: PFTFKPRQRPVFQTQGAAVSSMAQTLLPNDLASKAMGSAFTALLDANEDAQKAMKIIKTLSSLSDAWENVKGTLNNPEFWKQLLSRCVQLIAGMTIAVMHPDPLTLLCLGVLTAAEITSQTSLCEEIAAKFKTIFTTPPPRFPVISLFQQQSPLKQVNDVFSLAKNLDWAVKTVEKVVDWFGTWVAQEEREQTLDQLLQRFPEHAKRISDLRNGMAAYVECKESFDFFEKLYNQAVKEKRTGIAAVCEKFRQKHDHATARCEPVVIVLRGDAGQGKSLSSQIIAQAVSKTIFGRQSVYSLPPDSDFFDGYENQFAAIMDDLGQNPDGSDFTTFCQMVSTTNLLPNMASLERKGTPFTSQLVVATTNLPEFRPVTIAHYPAVERRITFDYSVSAGPVCSKTEAGCKVLDVERAFRPTGDAPLPCFQNNCLFLEKAGLQFRDNRSKEILSLVDVIERAVTRIERKKKVLTAVQTLVAQ
notes: domain: 2BC
As to B1, the binding result is on record as “no binding”.
